What is called Kd is the free concentration of one partner at which half of the binding sites on the other are occupied at equilibrium, for simple one-to-one binding. Read a low Kd as higher affinity. By koff is commonly meant the rate constant with which the complex falls apart. The term kon denotes a measure of how fast the partners come together. Read a high kon as faster complex formation.

The source of these data is patent US20190144558A1.

In this assay the target is purified human CD117 ectodomain (R&D Systems #332-SR) (human) (UniProt P10721). Description: BLI (Octet Red96), IgG on anti-human Fc sensors, human CD117 ectodomain at 33.3 and 11 nM, 1:1 fit. Background: Biolayer interferometry detects binding as a change in optical thickness at a sensor tip.

B1: Antibody 61 (antibody, human IgG1, kappa, V domains shown)
VH: EVQLLESGGGLVQPGGSLRLSCAASGFTFSSYVMIWVRQAPGKGLEWVSSISGDSVTTYYADSVKGRFTISRDNSKNTLYLQMNSLRAEDTAVYYCAKGPPTYHTNYYYMDVWGKGTTVTVSS
VL: DIQMTQSPSSVSASVGDRVTITCRASQGISSWLAWYQQKPGKAPKLLIYAASSLQSGVPSRFSGSGSGTDFTLTISSLQPEDFATYYCQQTNSFPYTFGGGTKVEIKR
In turn, B1 returned a Kd of 24.9 nM, a koff of 0.00533 s⁻¹ and a kon of 214000 M⁻¹ s⁻¹.
